{"source": "the nanobody polyreactivity screen of Harvey et al. (2022)"}
{"experiment": "yeast display, Sf9 membrane polyspecificity reagent, FACS + sequencing; frameworks hold sequencing errors", "method_in_brief": "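Galactose-induced (36–48 hours) yeast carrying a synthetic nanobody display library were exposed to 10% biotinylated, detergent-solubilized Sf9 membrane reagent at 4 °C for 1 hour. FACS followed streptavidin microbead enrichment, using low and high (top ~1%) gates for expression (anti-HA) and reagent binding (streptavidin). Colony PCR, MiSeq 2 × 250 sequencing and CDR-length filtering followed. Labels for polyreactivity reflect the gate of origin.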"}
{"sequence": "QVQLVESGGGLVQAGGSLRLSCAASGRTFWSNGMGWYRQAPGKERELVASISTSGGRTYYADSVKGRFTISRDNAKNTVYLQMNSLKPEDSAVYYCAARTVYRGRAYDYWGQGTQVTVSS", "polyreactivity (PSR sort gate)": "high polyreactivity"}
{"sequence": "QVQLVESGGGLVQAGGSLRLSCAASGSIFSYYAMGWYRQAPGKERELVAGITWSGGRTYYADSVKGRFTISRDHAQNTVYLQMNSLKPEDTAVYYCAAVQWFSRRSRYDYWGQGTQVTVSS", "polyreactivity (PSR sort gate)": "high polyreactivity"}
{"sequence": "QVQLVESGGGLVQAGGSLRLSCAASGRTFIENAMGWYRQAPGKERELVAAISRGGSTYYADSVKGRFTMSRDNAKNTVYLQMNSLKPEDTAVYYCAADYFYLFHYSSQKYSRYEYWGQGTQVTVSS", "polyreactivity (PSR sort gate)": "low polyreactivity"}
{"sequence": "QVQLVESGGGLVQAGGSLRLSCAASGLIFPYYAMGWYRQAHGKERELVAAITRRGGSTYYADSVKGRFTISRDNAKNTVYLQMNSLKPEDTAVYYCNKVDQGRYGYWGQGTQVTVSS", "polyreactivity (PSR sort gate)": "high polyreactivity"}
{"sequence": "QVQLVESGGGLVQAGGSLRLSCAASGRIFRLYAMGWYRQAPGKEREFVATITWIGGRTYYADSVKGRFTISRDNAKNTVYLQMNSLKPEDTAVYYCAADPGYTYEYWGQGTQVTVSS", "polyreactivity (PSR sort gate)": "low polyreactivity"}
{"sequence": "QVQLVESGGCLVQAGGSLRLSCAASGFTFPYYAMGWDRQAPGKERELVAAISSGGRTNYADSVKGRFTISRDNAKNTVYLQMNSLKPEDTAVYYCATRSYVFAWEFNYWGQGTQVTVSS", "polyreactivity (PSR sort gate)": "high polyreactivity"}
{"sequence": "QVQLVESGGGLVQAGGSLRLSCAASGITFPYYAMGWYRQAPGKERELVAAISAGGTRTYYADSVKGRFTISRDNAKNTVYLQMNSLKPEDTAVYYCAARVWPIVQNYYWGQGTQVTVSS", "polyreactivity (PSR sort gate)": "high polyreactivity"}
{"sequence": "QVQLGESGGGLVQAGGSLRLSCAASGFIFPIYAMGWYIKSPVTERELVAVISGSGGSTYYADSVKGRFTISRDNAKNTVYLLMNSLKPEDTAVYYCAALGRNVAVYKGGYWGQGNQVTVSS", "polyreactivity (PSR sort gate)": "low polyreactivity"}
{"sequence": "QDQPVDSGRCLVQAGGSLRLSCAASGSTFEVYTMGWYRQAPGQERELVAAITKNGGTTYYADSVKGRFTISRDNAKNTVYLLMNSLKPEDTAVYYCAATWPRYGYGYWGQGTQVTVSS", "polyreactivity (PSR sort gate)": "low polyreactivity"}
{"sequence": "QVQLVESGGGLVQAGGSLRLSCAASGLIFARNAMGWYRQAPGKERELVAAISSSGNTYADSVKGRFTISRDNAKNTVYLQMNSLKPEDTAVYYCNKYGVVLPGFDYWGQGTQVTVSS", "polyreactivity (PSR sort gate)": "high polyreactivity"}
{"sequence": "QVHLVESGGGLVQAGGSLRLSCAASGRIFARNAKGWYRQAPGKERELVATIRVGGGSTYYADSVKGRYTISRDNAKNTVYLQMNSLKPEDTAVYYCAVRQLYSYPGDRRGYYWGQGTQVTVSS", "polyreactivity (PSR sort gate)": "low polyreactivity"}
{"sequence": "QVQLVESGGGLVQAGGSLRLSCAASGYIFYHYAMGWYRQAPGKERELVATISLGGGRTYYADSVKGRFTISRDTAKNTVYLQMNSLKPEDTAVYYCAADDGPGFDYWGQGTQVTVSS", "polyreactivity (PSR sort gate)": "high polyreactivity"}
{"sequence": "QVQLVESGGGLVQAGGSLRLSCAASGSIFLIYAMGWYRQAPGKERELVAAISSGGSTYYADSVKGRFTISRDNAKNTVYLQINSLKPEDTAVYYCATYSTSVAYHLYYWGQGTQVTVSS", "polyreactivity (PSR sort gate)": "low polyreactivity"}
{"sequence": "QVQLVESGGGLVQAGGSLRLSCAASGSIFSFNAMGWYRQAPGKERELVAAITTSGGSTYADSVKGLFTISRDNAKNTVYLQMNSLKPEDTAVYYCAVVGEVEGYYWDDYWGQGTKVTVSS", "polyreactivity (PSR sort gate)": "low polyreactivity"}
{"sequence": "QVQLVDSGGGLVQAGGSLRLSCPASGITLNHYVMGWYRQAPAKETELVAAISSSGGSTYYADSVKGRFTISRDNAMITVYLQMNSLKPEDTAVYYCAKDYNGRYTWRYEYWGQGTQVTVSS", "polyreactivity (PSR sort gate)": "high polyreactivity"}
{"sequence": "QVQHVESGGGLDQAGGSLRLSCAASGRIYCTNAMGWYRQAPGKESELVADITSGGSTNYADSVKGRFSISRDNAKNTVYLQMTSLKPEDTAVYYCAADVIGDLRWYRDEYWGQGTQVTVAS", "polyreactivity (PSR sort gate)": "low polyreactivity"}
{"sequence": "QVQLVESGVGFVQAGASLRLSSAASGSIFRINAMGWYRQAPGKVRELVAAITRSGGSTFYADSVKGRFTMSRDYAKNTVYFQMHSLTPEDTAVYFCAAVWYYSTVPARYEYWGQGTQVTVSS", "polyreactivity (PSR sort gate)": "low polyreactivity"}
{"sequence": "QVQLVESGGGLVQAGGSLRLSCAASGSTFWSYTMGWYRPAPGKERELVARIRTTGGSTYADSVKGRFTISRDNAKNTVYLQMNSLKPEDTAVYDCAKEGWLRYYPWYGGDYWGQGTLVTVSS", "polyreactivity (PSR sort gate)": "high polyreactivity"}
{"sequence": "QVQLVESGGGLVQAGGSLRLSCAASGIIFVRYTMGWYRQAPGKERELVAAISSSGGSTYYADSVKGRFTISRDNAKNTVYLQMNSLKPEDTAVYYCNAEIRDNNVGYYTDYDYWGQGTQVTVSS", "polyreactivity (PSR sort gate)": "high polyreactivity"}
{"sequence": "QVQLVESGGGLVQAGGSLRLSCAASGRTIVYNAMGWYRQAPGKERELVAAITSRGGSTHYADSVKGRFTISRDNAKNTVYLQMNSLKPEDTAVYYCAADFLSPAYRPSWYRFDYWGQGTQVTVSS", "polyreactivity (PSR sort gate)": "low polyreactivity"}
{"sequence": "QVQLVESGGGLVQAGGSLRISCAPSGITFKDYAMGWYRQAPGKERELVAVISYSGGSTYYADTVKGRFTISRDNAKNTVYLQMNSLKPEDTAVYYCAARVGPEYDWGQGTQVTVSS", "polyreactivity (PSR sort gate)": "low polyreactivity"}
{"sequence": "QVQLVESGGGLVQAGGSLRLSCAASGRTFNRYAMGWYRQAPGKERELVAAINSVGSTYYADSVKGRFTISRDNAKNTVYLQMNSLKPEDTAVYYCNAVQGSRFGYWGQGTQVTVSS", "polyreactivity (PSR sort gate)": "high polyreactivity"}
{"sequence": "QVQLVESGGGLVQAGGSLRLSCAASGSIFDYYAMGWYRQAPGKERELVADITSGGSTNYADSVKGRFTISRDNAKNTVYLQMNSLKPEDTAVYYCNALASRYPAYYYWGQGTQVTVSS", "polyreactivity (PSR sort gate)": "low polyreactivity"}
{"sequence": "QVQLVESGGGLVQAGGSLRLSCAASGFIFKKYVMGWYRQAPGKERELVAGSSRSGGSTYYADSVKGRFTISRDNAKNTVYVQMNSLKPEDTAVYYCAAYIYQSPTRGGGYWGQGTQVSVSS", "polyreactivity (PSR sort gate)": "high polyreactivity"}
{"sequence": "QVQLVESGGGLVQAGGSLRLSCAASGYTFYINGMGWSRQAPGKERELVAVITWSSGSTYYADSVKGRFTISRDNAKNTVYLQMKSLKPEDTAVYYCAADVTYEDGAWTLQYDYWGQGTQVTVSA", "polyreactivity (PSR sort gate)": "high polyreactivity"}
{"sequence": "QVQLVESGGGLVQAGGSLRLSCAASGSTLGYYAKGWYRQAPGKERELVATITRSGGNTYYADSVKGRFTISRDNAKNTVYLQMNSLKPEDTAVYYCAARRLYGSQRGYWGQGTQLTVSS", "polyreactivity (PSR sort gate)": "high polyreactivity"}
{"sequence": "QVQLVESGGGLVQAGGSLRLSCAASGSIFQHYAMGWYRQAPGKEREFVAAISGRGGGTYYADSVKGRFTISRDNAKNTVYLQMNSLKPEDTAVYYCAADYRGSYWRYYYWGQGTQVTVSS", "polyreactivity (PSR sort gate)": "high polyreactivity"}
{"sequence": "QVQLVESGGCLVQAGGRLRLSCAPSGFTFRKYAMGWYRQAPGKERQLVAAITANGGRTYNADSVKGRFTISRDNAKYTDYLKMNSLKPEDTSVYYCYARPSRGFRPRSAYGYWGQGTQVTVSS", "polyreactivity (PSR sort gate)": "high polyreactivity"}
{"sequence": "QVQLVESGGGLVQAGGSLRLSCAASGSIFKSYAMGWYRQAPGKERELVAAISWSGTSTYYADSVKGRFTISRDNAKNTVYLQMNSLKPEDTAVYDCAASGDYGEYGYWGQGTQVTVSS", "polyreactivity (PSR sort gate)": "low polyreactivity"}
{"sequence": "QVQLVESGGGLVQAGGSLRLSCAASGSIFITYDMGWYRQAPGKERELVAAISSVGRTTYADSVKGRFTISRDNAKNTVYLQMNSLKTEDTAVYYCAVVGRSSHNVRTYGYWGQGTQVTVTS", "polyreactivity (PSR sort gate)": "low polyreactivity"}
{"sequence": "QVQRVESGGGLVQAGGSLRLSCAASGSIFEPYAMGCYRQAPGKESELVATAITYSGGSTYYADSVKGRFTISRDNAKNTVYLQMNSLKPEDTAVYYCAADDLGDGVYKLDYWGLGTQVTVSS", "polyreactivity (PSR sort gate)": "low polyreactivity"}
{"sequence": "QVQLVESGGGLVQAGGSLRLSCAASGSTFSDYAMGWYRQAPGKERELVAAISYSGGSTYYADSVKGRFTISRDNAKNTVYLQMNSLKPEDTAVYYCAAEYERYFGYDYWGQGTQVTVSS", "polyreactivity (PSR sort gate)": "low polyreactivity"}
{"sequence": "QVQLVESGGGLVQAGGSLRLSCAASGSTFFPYAMGWYRQAPGKERELVAGISSDGGTSYADSVKGRFTISRDNAKNTVYLQMNSLKPEDTAVYYCAALQADRGGWYDYWGQGTQVTVSS", "polyreactivity (PSR sort gate)": "low polyreactivity"}
{"sequence": "QVQLVESGGGLVQAGGSLRLSCAASGFTVGYNAMGWYRQAPGKERELVAAIDKRGDSTYADSVKGRFTISRDNAKNTVYLQMNSLKPEDTAVYYCAADSDSKYNYGFLWDTYESWGQGTQVTVSS", "polyreactivity (PSR sort gate)": "low polyreactivity"}
{"sequence": "QVQLVESGRGLVQAGGSLRLSCAASGTYGYYAMGWYRQAPGKQRELVAAISGSGGSTYYADSVKGRFTISRDNAKNTVYLQMNSLKPEDTAVYYCAKRRRYGGRWVSGDYWGQGTQVTVSS", "polyreactivity (PSR sort gate)": "high polyreactivity"}
{"sequence": "QVHLVESGGGLVQAGGSLRLSCAASGSTFGYNAMGWYRQAPGKVWELVAVISYSGGSPYYADSVKGRFTLSRDNAKNTVSLQMNSLKPADTAVYYCAKRALTSTRYRVKYDSWGQGTQVTVAS", "polyreactivity (PSR sort gate)": "high polyreactivity"}
{"sequence": "QVQLVESGGGLVQAGGSLRLSCAASGRIFGIYAMGWYRQAPGKERELVARITGGGSTNYADSVKGRFTISRDNAKNTVYLQMNSLKPEDTAVYYCAATVRRIVGNITRYDYWGQGTQVTVSS", "polyreactivity (PSR sort gate)": "low polyreactivity"}
{"sequence": "QVQLVESGGGLVQAGGSLRLSCAASGPISRYNTMGWYRQAPGKERELVAAISYRGGSTYYADSVKGRFTISRDNAKNTVYLQMNSLKPEDTAVYYCNKVRSSVRSGGYGYWGQGTQVTVSS", "polyreactivity (PSR sort gate)": "high polyreactivity"}
{"sequence": "QVQHVESGGGLVQAGGSLRLSCAASGLIYSYYTMGWYRQAPGKERDLVAAITGSGGTTYYADSVKGRFTISRDNAKNTVYIQMNSLKPEDTAVYYCATPPPEVWQRWYREYDYWGQGTQVTVSS", "polyreactivity (PSR sort gate)": "low polyreactivity"}
{"sequence": "QVQLVESGGGLVQAGGSLRLSCAASGSTFNGYAMGWYRQAPGKERELVAAITSSGSRTYYADSVKGRFTISRDNAKNTVYLQMNSLKPVDTAVYYCNAGKLARTYFRSSSLSPGDYWGQGTQVTVSS", "polyreactivity (PSR sort gate)": "high polyreactivity"}
{"sequence": "QVQLVESGGGLVQAGGSLRLSCAASGRIFDLYAMGWYRQAPGKERELVATISSGGSTYYADSVKVRFTISRDNAKNTVYLQMNSLKPEDTAVYYCAADSWVQFDYWGQGKQVTVSS", "polyreactivity (PSR sort gate)": "low polyreactivity"}
{"sequence": "QVQLVESGGGLVQAGGSLRLSCAASGSTFVKNAMGWYRQAPGKERELVAAISYRGGRTYYADSVKGRYTISRDNAKNTVYLQMNSLKPEDTAVYYCNARYRTPSFIRMGYWGQGTQVTVSS", "polyreactivity (PSR sort gate)": "high polyreactivity"}
{"sequence": "QVQLVESGGGLVQAGGSLRLSCAASGRTFWYYTMGWYRQAPGKERELVAAISSGGRTNYADSVKGRFTISRDNAKITVYLQMNSLKPEDTAVYYCATSRYYKYVERDYWGQGTQVTVSS", "polyreactivity (PSR sort gate)": "high polyreactivity"}
